For one assay, the target named is T1, HA-TRAF2 (UniProt Q12933 1-501, limits assumed).
T1 construct: not shown: HA tag
T1 sequence (looked up): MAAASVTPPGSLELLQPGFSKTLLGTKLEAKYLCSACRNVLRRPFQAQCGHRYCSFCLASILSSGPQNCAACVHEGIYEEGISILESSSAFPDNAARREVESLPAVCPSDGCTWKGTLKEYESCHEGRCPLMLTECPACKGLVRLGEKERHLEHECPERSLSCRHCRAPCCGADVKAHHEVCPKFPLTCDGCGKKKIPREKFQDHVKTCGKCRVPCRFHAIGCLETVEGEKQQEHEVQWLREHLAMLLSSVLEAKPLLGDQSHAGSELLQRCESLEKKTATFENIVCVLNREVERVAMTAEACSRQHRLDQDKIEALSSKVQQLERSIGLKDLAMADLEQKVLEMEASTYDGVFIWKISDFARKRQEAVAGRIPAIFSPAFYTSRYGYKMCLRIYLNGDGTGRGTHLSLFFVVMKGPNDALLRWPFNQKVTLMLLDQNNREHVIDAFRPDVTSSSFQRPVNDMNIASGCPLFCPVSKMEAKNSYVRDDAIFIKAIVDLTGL
In words: co-immunoprecipitation from 293T lysates, western blot. (In general: In western blotting, separated proteins are transferred to a membrane and probed.)

Another assay has as its target T2, HA-TRAF3 (UniProt Q13114 1-568, limits assumed).
T2 construct: not shown: HA tag
T2 sequence (looked up): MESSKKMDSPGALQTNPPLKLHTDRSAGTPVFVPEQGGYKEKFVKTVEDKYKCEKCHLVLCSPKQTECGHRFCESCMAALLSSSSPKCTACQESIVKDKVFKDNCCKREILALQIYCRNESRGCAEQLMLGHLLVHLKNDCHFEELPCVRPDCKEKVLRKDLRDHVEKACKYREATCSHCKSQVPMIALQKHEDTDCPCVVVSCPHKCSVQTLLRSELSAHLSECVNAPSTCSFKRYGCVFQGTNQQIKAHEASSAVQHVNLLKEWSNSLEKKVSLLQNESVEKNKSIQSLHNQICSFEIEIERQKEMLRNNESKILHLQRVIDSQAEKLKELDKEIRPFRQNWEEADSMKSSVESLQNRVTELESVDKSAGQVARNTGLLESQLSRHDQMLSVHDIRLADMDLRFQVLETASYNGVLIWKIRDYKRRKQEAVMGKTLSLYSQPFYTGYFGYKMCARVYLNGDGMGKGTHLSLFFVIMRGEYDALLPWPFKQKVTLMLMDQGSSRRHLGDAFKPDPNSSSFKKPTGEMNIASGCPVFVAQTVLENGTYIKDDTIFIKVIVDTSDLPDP
Described as above.

B1: Flag-tagged TRADEα (receptor)
chain: KVTCESGDCRQQEFRDRSGNCVPCNQCGPGMELSKECGFGYGEDAQCVTCRLHRFKEDWGFQKCKPCLDCAVVNRFQKANCSATSDAICGDCLPGFYRKTKLVGFQDMECVPCGDPPPPYEPHCASKVNLVKIASTASSPRDTALAAVICSALATVLLALLILCVIYCKRQFMEKKPSWSLRSQDIQYNGSELSCFDRPQLHEYAHRACCQCRRDSVQTCGPVRLLPSMCCEEACSPNPATLGCGVHSAASLQARNAGPAGEMVPTFFGSLTQSICGEFSDAWPLMQNPMGGDNISFCDSYPELTGEDIHSLNPELESSTSLDSNSSQDLVGGAVPVQSHSENFTAATDLSRYNNTLVESASTQDALTMRSQLDQESGAIIHPATQTSLQEA
notes: Full-length isoform expressed in 293T cells and tested in cell lysates by co-immunoprecipitation; Position of the Flag tag unknown (written last here only for want of information); Putative 25-residue signal left out; also called Flag tagged TRADE construct; not shown: Flag tag
As for B1, the binding result in the assay with HA-TRAF2 was “no binding”.

B2: deletion construct TRADE 1-218 (Flag-tagged) (receptor)
chain: KVTCESGDCRQQEFRDRSGNCVPCNQCGPGMELSKECGFGYGEDAQCVTCRLHRFKEDWGFQKCKPCLDCAVVNRFQKANCSATSDAICGDCLPGFYRKTKLVGFQDMECVPCGDPPPPYEPHCASKVNLVKIASTASSPRDTALAAVICSALATVLLALLILCVIYCKRQFMEKKPSWSLRSQDIQYNGSEL
notes: Putative 25-residue signal left out; not shown: Flag tag
Regarding B2, the binding result in the assay with HA-TRAF3 is given as “no binding”.

B3: Flag-tagged TRADEβ (receptor)
chain: KVTCETGDCRQQEFRDRSGNCVPCNQCGPGMELSKECGFGYGEDAQCVTCRLHRFKEDWGFQKCKPCLDCAVVNRFQKANCSATSDAICGDCLPGFYRKTKLVGFQDMECVPCGDPPPPYEPHCASKVNLVKIASTASSPRDTALAAVICSALATVLLALLILCVIYCKRQFMEKKPSWSLRSQDIQYNGSELSCLDRPQLHEYAHRACCQCRRDSVQTCGPVRLLPSMCCEEACSPNPATLGCGVHSAASLQARNAGPAGEMVPTFFGSLTQSICGEFSDAWPLMQNPMGGDNISFCDSYPELAGEDIHSLNPELESSTSLDSNSSQDLVGGAVPVQSHSENFTAATDLSRYNNTLVESASTQDALTMRSQLDQESGAIIHPATQTSLQVRQRLGSL
notes: Full-length isoform expressed in 293T cells and tested in cell lysates by co-immunoprecipitation; Position of the Flag tag unknown; Putative 25-residue signal left out; also called Flag tagged TRADE construct; not shown: Flag tag
For the molecule B3, the binding result in the assay with HA-TRAF2 is listed as “no binding”.

The values above are taken from patent US20020068696A1 (published 2002).
